Columns and labels:
Test in all cases: SPR
[1] = target: T1, mouse GDF-15 (mouse, UniProt Q9Z0J7)
T1 chain: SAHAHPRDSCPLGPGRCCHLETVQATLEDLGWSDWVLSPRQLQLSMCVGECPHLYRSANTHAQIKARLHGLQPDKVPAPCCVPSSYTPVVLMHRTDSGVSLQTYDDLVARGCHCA

[2] = target: T2, cynomolgus GDF-15 (cynomolgus monkey, UniProt G7PWZ3)
T2 chain: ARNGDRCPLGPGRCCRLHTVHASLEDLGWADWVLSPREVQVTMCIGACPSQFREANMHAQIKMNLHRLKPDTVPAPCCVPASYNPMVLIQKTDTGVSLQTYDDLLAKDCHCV

[3] = target: T3, rat GDF-15 (rat, UniProt Q9Z0J6)
T3 chain: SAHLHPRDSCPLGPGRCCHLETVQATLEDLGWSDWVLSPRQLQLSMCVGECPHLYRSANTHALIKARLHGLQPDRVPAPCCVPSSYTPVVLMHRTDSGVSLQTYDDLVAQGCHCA

[4] = target: T4, human GDF-15 (human, UniProt Q99988)
T4 chain: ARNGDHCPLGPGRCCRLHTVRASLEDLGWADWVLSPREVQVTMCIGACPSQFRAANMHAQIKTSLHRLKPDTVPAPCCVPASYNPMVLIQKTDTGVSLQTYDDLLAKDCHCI

Kd [1]: 9.76 nM
Kd [2]: 0.108 nM
Kd [3]: 0.449 nM
Kd [4]: 0.0383 nM
B1: CTL-002 (antibody, V domains shown)
VH: QITLKESGPTLVKPTQTLTLTCTFSGFSLSTSGMGVSWIRQPPGKGLEWLAHIYWDDDKRYNPTLKSRLTITKDPSKNQVVLTMTNMDPVDTATYYCARSSYGAMDYWGQGTLVTVSS
VL: DIVLTQSPSFLSASVGDRVTITCKASQNVGTNVAWFQQKPGKSPKALIYSASYRYSGVPDRFTGSGSGTEFTLTISSLQPEDFAAYFCQQYNNFPYTFGGGTKLEIKR

Source: US20240043517 (published 2024)
